Patent publication US12304944

Assays:
[1] = system: hFIX R338L (codon-optimized human factor IX carrying the R338L mutation)
[2] = system: hFIX R338L-2Fc (codon-optimized human factor IX R338L, XIa-cleavable linker, IgG1 Fc, 3xGGGS linker, IgG1 Fc)
hFIX R338L-2Fc (codon-optimized human factor IX R338L, XIa-cleavable linker, IgG1 Fc, 3xGGGS linker, IgG1 Fc), sequence (chain, as listed by the source R338L R338L): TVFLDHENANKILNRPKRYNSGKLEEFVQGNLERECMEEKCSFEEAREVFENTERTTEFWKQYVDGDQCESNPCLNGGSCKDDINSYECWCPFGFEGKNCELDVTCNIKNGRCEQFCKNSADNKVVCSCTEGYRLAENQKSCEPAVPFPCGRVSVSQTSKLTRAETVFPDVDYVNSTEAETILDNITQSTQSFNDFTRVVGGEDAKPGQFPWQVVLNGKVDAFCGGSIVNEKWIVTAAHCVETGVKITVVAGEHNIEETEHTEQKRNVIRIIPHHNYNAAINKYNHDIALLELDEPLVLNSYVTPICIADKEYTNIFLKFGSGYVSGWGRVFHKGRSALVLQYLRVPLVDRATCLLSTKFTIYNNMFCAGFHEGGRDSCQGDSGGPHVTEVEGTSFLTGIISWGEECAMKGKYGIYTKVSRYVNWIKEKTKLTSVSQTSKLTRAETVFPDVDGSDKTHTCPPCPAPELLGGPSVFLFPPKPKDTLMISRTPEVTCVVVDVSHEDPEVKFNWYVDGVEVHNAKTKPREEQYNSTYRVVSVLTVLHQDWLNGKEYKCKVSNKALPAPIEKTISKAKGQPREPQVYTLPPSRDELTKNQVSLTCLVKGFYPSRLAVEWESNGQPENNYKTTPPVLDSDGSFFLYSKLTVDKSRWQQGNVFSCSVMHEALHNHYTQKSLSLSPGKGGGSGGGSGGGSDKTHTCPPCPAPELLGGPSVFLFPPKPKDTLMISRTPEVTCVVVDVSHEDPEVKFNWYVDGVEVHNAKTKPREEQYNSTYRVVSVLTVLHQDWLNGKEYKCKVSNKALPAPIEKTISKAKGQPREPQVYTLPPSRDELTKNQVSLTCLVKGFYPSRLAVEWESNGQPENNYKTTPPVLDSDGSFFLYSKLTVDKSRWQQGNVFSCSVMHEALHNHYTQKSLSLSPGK

hFIX R338L (codon-optimized human factor IX carrying the R338L mutation), sequence (chain, as listed by the source R338L R338L): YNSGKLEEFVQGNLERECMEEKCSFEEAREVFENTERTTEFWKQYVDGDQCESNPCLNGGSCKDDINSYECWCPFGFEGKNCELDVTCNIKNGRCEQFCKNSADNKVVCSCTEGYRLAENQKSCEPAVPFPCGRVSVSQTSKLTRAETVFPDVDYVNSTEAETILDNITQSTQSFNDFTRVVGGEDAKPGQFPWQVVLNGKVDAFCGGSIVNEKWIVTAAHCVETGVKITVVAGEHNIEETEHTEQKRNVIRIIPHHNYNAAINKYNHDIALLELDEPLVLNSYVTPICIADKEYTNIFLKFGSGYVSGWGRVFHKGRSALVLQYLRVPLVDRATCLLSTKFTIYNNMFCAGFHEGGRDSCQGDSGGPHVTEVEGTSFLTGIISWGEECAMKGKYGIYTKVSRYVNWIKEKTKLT

Question: Which “cleavage by XIa, western blot of conditioned media treated or not with XIa” value [1] does the source give for activated factor XI (XIa) here?
Answer: Only low levels of partial XIa cleavage of media derived unpurified hFIX could be observed

Question: And the “cleavage by XIa, western blot of conditioned media treated or not with XIa” value [2]?
Answer: Only low levels of partial XIa cleavage of media derived unpurified hFIX could be observed

Question: What about the “processing by XIa in vitro” value [2] of the same substance?
Answer: its translated protein was efficiently processed by XIa
